Among the data in article PMC5120205 (2016) are Kd values, retold here.

Assay [1] addresses recombinant full-length IsdB (Staphylococcus aureus strain USA300, UniProt Q2FHV2 41-613). Briefly: SPR. (In SPR one partner is held on a chip, and binding of the other changes the refractive index at the surface.)
For assay [2], the target named is IsdB NEAT2 domain (Staphylococcus aureus strain USA300). Nature of the assay: SPR.

B1: D4-10-N1 germline-reverted (IGHV4-39) (antibody, V domains shown)
VH: QLQLQESGPGLVKPSETLSLTCTVSGGSISSSSYYWGWIRQPPGKGLEWIGSIYYSGSTYYNPSLKSRVTISVDTSKNQFSLKLSSVTAADTAVYYCAKPKSRDRGGPGDDYFGMDVWGQGIMVTVSS
VL: DIQLTQSPSFLSASVADRVTITCRASQAVRSSLAWYQQKPGKAPQLLIYSASTLENGVSSRFSGSGPGTEFTLTISSLQPEDVGTYYCQQLNTYPFTFGPGTKVEIK
The Kd is the concentration at which binding is half-saturated. For B1, the Kd in assay [1] stood at 90.7 nM.

B2: D2-06-N2 (IGHV1-69*01 germline-reverted) (antibody, V domains shown)
VH: QVQLVQSGAEVKKPGSSVKVSCKASGGTFSSYAISWVRQAPGQGLEWMGGIIPIFGTANYAQKFQGRVTITADESTSTAYMELSSLRSEDTAVYYCARDRPPGAQFDTWGQGTLVTVSS
VL: not shown
As for B2, the equilibrium dissociation constant (Kd) in assay [2] stood at 24.1 nM.
